Tests used:
[1] = target: amyloid-beta oligomer (AbO), from Abeta(1-40) peptide (UniProt P05067 672-711); test: FRET fluorescence recovery (displacement from Au NRs@PDA); Au NRs@PDA quencher; LOD 50 pM (not a Kd); QD-aptamer conjugates (in deionized water) with 0.5 mg/mL Au NRs@PDA stock (55 uL to 20 uL), 30 min quench, then 120 min with protein at room temperature; excitation 405 nm; buffer, salt and pH not stated; conditions: protein: commercial; label: QDs625 (CdSe/CdS/ZnS) via 5' thiol
[2] = target: amyloid-beta monomer (AbM) (UniProt P05067 672-711); test: FRET fluorescence recovery (displacement from Au NRs@PDA); 20 nM AbM; no obvious recovery; QD-aptamer conjugates (in deionized water) with 0.5 mg/mL Au NRs@PDA stock (55 uL to 20 uL), 30 min quench, then 120 min with protein at room temperature; excitation 405 nm; buffer, salt and pH not stated; conditions: protein: commercial; label: QDs665 (CdSe/CdS/ZnS) via 5' thiol
Chain of amyloid-beta monomer (AbM) (P05067 672-711): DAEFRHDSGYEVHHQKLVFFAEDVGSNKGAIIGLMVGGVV

Chain of amyloid-beta oligomer (AbO), from Abeta(1-40) peptide (P05067 672-711): as above

Row | Binder | binding result [1] | binding result [2]
1 | GCCTGTGTTGGGGCGGGTGCG (ssDNA, 5'-HS-(CH2)6) [AbO aptamer] | binds | 
2 | GCGGAGCGTGGCAGG (ssDNA, 5'-HS-(CH2)6) [tau aptamer] |  | no binding
